The target in one assay is CCL20 (Mus musculus) (UniProt O89093). Conditions: cited from earlier work.
The target of assay [1] is human GPR182 (hGPR182), expressed from hGPR182 T2A GFP in 300.19 pre-B cells (human) (UniProt O15218). Kind of assay: flow cytometry on cells; competition scavenging at 37°C: 300.19 cells expressing mGPR182 or hGPR182 with 3 nM fluorescent chemokine and increasing concentrations of its unlabeled counterpart, 45 min.
In assay [2] the target is murine GPR182 (mGPR182), expressed from mGPR182 T2A GFP in 300.19 pre-B cells (mouse) (UniProt P43142). The description is as above.

Take ACKR4 (from UniProt Q924I3): the Kd with CCL20 (Mus musculus) is 800 nM.

With “hCXCL12, unlabeled (from UniProt P48061 22-93) (ligand)”, the Kd (competition scavenging) in assay [1] stood at 85 nM; in assay [2] it was 60 nM.

The values are drawn from publication PMC10405735.
